Results as given in patent US12448423 (Xencor, dated 2025).

Tests used:
[1] = target: T1, cynomolgus CD8 (captured on the Octet biosensor) (cynomolgus); experiment: Octet (BLI); cynomolgus CD8 captured, dipped into multiple concentrations of the one-arm mAb
T1 construct: Construct not described; also called cyno CD8; cyno CD8a

[2] = target: T1, cynomolgus CD8 (captured on the Octet …); experiment: method not stated in the sentence (Octet in the same example)
[3] = target: T2, human CD8 (captured on the Octet biosensor) (human, UniProt P01732 22-182, limits assumed); experiment: Octet (BLI); human CD8 captured, dipped into multiple concentrations of the one-arm mAb
T2 construct: Construct not described; also called recombinant human CD8a
T2 sequence (P01732 22-182 limits assumed): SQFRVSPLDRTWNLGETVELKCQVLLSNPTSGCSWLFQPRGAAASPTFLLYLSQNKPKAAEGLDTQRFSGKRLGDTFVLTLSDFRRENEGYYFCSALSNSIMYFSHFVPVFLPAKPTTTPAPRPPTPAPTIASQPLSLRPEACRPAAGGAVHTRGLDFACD

[4] = target: T3, NKG2D (affinity ladder and epitope binning; construct not stated) (UniProt P26718 73-216, limits assumed); experiment: affinity ladder; method and format not stated
T3 sequence (looked up): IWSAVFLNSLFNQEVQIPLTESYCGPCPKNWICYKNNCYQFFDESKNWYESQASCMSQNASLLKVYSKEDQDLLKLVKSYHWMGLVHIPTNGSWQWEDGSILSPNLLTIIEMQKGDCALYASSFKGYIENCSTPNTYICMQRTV

B1: humanized OKT8 variant (H2L1) (antibody)
heavy: QVQLVQSGAEVKKPGASVKVSCKASGFNIKDTYIHWVRQAPGKGLEWMGRIDPANDNTLYASKFQGRVTITADTSINTAYMELSRLRSDDTAVYYCGRGYGYYVFDHWGQGTTVTVSSASTKGPSVFPLAPSSKSTSGGTAALGCLVKDYFPEPVTVSWNSGALTSGVHTFPAVLQSSGLYSLSSVVTVPSSSLGTQTYICNVNHKPSNTKVDKKVEPKSCDKTHTCPPCPAPPVAGPSVFLFPPKPKDTLMISRTPEVTCVVVDVKHEDPEVKFNWYVDGVEVHNAKTKPREEQYNSTYRVVSVLTVLHQDWLNGKEYKCKVSNKALPAPIEKTISKAKGQPREPQVYTLPPSREQMTKNQVKLTCLVKGFYPSDIAVEWESNGQPENNYKTTPPVLDSDGSFFLYSKLTVDKSRWQQGNVFSCSVMHEALHNHYTQKSLSLSPGK
light: DIKMTQSPSSLSASVGDRVTITCRTSRSISQYLAWYQEKPGKTNKLLIYSGSTLQSGIPSRFSGSGSGTDFTLTISSLQPEDFATYYCQQHNENPLTFGAGTKLEIKRTVAAPSVFIFPPSDEQLKSGTASVVCLLNNFYPREAKVQWKVDNALQSGNSQESVTEQDSKDSTYSLSSTLTLSKADYEKHKVYACEVTHQGLSSPVTKSFNRGEC
Fc: EPKSSDKTHTCPPCPAPPVAGPSVFLFPPKPKDTLMISRTPEVTCVVVDVKHEDPEVKFNWYVDGVEVHNAKTKPREEEYNSTYRVVSVLTVLHQDWLNGKEYKCKVSNKALPAPIEKTISKAKGQPREPQVYTLPPSREEMTKNQVSLTCDVSGFYPSDIAVEWESDGQPENNYKTTPPVLDSDGSFFLYSKLTVDKSRWEQGDVFSCSVMHEALHNHYTQKSLSLSPGK
notes: also called OKT8_H2L1
Kd [1]: 202 nM
koff [1]: 0.0699 s⁻¹
kon [1]: 347000 M⁻¹ s⁻¹
Kd [2]: 200 nM
Kd [3]: 12 nM
koff [3]: 0.006 s⁻¹
kon [3]: 500000 M⁻¹ s⁻¹

B2: KYK-1.0 (anti-NKG2D antigen binding domain) (antibody, V domains shown)
VH: EVQLVESGGGVVQPGGSLRLSCAASGFTFSSYGMHWVRQAPGKGLEWVAFIRYDGSNKYYADSVKGRFTISRDNSKNTKYLQMNSLRAEDTAVYYCAKDRFGYYLDYWGQGTLVTVSS
VL: QPVLTQPSSVSVAPGETARIPCGGDDIETKSVHWYQQKPGQAPVLVIYDDDDRPSGIPERFFGSNSGNTATLSISRVEAGDEADYYCQVWDDNNDEWVFGGGTQLTVL
notes: also called KYK-1.0[NKG2D]_H1L1
Kd [4]: 170 nM
